Laboratory results reported in article PMC4791469.

Columns and labels:
[1] = target: Chlamydomonas [FeFe]-hydrogenase HYDA1 (CrHYDA1) (Chlamydomonas reinhardtii)
[2] = target: Chlamydomonas ferredoxin:NAD(P) reductase I (CrFNR1) (Chlamydomonas reinhardtii) (UniProt P53991)
Sequence of UniProt P53991 (P53991 36-354): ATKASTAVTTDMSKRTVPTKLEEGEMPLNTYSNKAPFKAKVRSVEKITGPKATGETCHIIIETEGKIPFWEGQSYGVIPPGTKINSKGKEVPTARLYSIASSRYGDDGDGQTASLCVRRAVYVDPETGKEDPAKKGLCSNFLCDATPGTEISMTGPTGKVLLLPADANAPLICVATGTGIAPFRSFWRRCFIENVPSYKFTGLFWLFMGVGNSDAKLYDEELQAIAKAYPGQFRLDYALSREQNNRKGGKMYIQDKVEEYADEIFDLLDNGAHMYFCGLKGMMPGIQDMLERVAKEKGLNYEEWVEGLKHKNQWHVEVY

hydrogen photo-production rate (thylakoids, 100 nM HYDA1, light, gas chromatography) [1] | Km for the ferredoxin in FNR1-catalysed NADPH photo-production (thylakoids, 0.5 μM FNR1, varied FDX, Lineweaver-Burk) [2] | catalytic efficiency kcat/Km of FNR1-catalysed NADPH photo-production with this ferredoxin [2] | hydrogen photo-production rate (thylakoids, 100 nM HYDA1, light, gas chromatography) (µmol H2/µg Chl/h) [1] | Substance
264 | 3.44 µM |  |  | CrFDX2 (M62F/∇95Y) (natural protein)
134 | 0.38 µM |  |  | CrFDX2 (∇95Y) (natural protein)

Further lines, the substance ahead of its results:

Substance | hydrogen photo-production rate (thylakoids, 100 nM HYDA1, light, gas chromatography) [1] | Km for the ferredoxin in FNR1-catalysed NADPH photo-production (thylakoids, 0.5 μM FNR1, varied FDX, Lineweaver-Burk) [2] | catalytic efficiency kcat/Km of FNR1-catalysed NADPH photo-production with this ferredoxin [2] | hydrogen photo-production rate (thylakoids, 100 nM HYDA1, light, gas chromatography) (µmol H2/µg Chl/h) [1]
Chlamydomonas reinhardtii ferredoxin 1 (CrFDX1), mature, tag cleaved (natural protein) | 489 | 0.4 µM | 1.7e+09 M⁻¹ s⁻¹ | 
Chlamydomonas reinhardtii ferredoxin 2 (CrFDX2), mature, wild type, tag cleaved (natural protein) | 86 | 0.18 µM | 3.5e+09 M⁻¹ s⁻¹ | 
CrFDX2 (M62F) (natural protein) |  | 0.69 µM |  | 150
